Results reported in patent US20240174744A1 (SCIRHOM, published 2024).

B1: antibody 50 (antibody, V domains shown)
VH: QVQLQQSGAELVRPGASVKVSCKASGYAFSNYLIEWVKQRPGQGLEWIGVINPGSGFTKYNEKFKGKATLTADKSSSTAYMQLSSLTSEDSAVYFCARGLYRAMDYWGQGTSVTVSS
VL: DIQMTQSPASQSASLGESVTITCLASQTIGTWLAWYQQKPGKSPQLLIYAAASLADGVPSRFSGGGSGTKFSFKISSLQAEDFVNYYCQQIYSTPYTFGGGTKLEIK
notes: Mouse IgG, kappa light chain; also called clone #50; purified antibody 50
B2: antibody 43 (antibody, V domains shown)
VH: QVALKESGPGILQPSQTLSLTCSFSGFSLSTFGMGVGWIRQSSGKGLEWLANIWWDDDKYYNPALKSRLTISKDASKNQAFLKIANVDTADTATYYCARIGNYGSNYWYFDVWGTGTTVTVSS
VL: QIVLTQSPAIMSASPGERVTMTCSANSRISYMYWYQQKPGSSPRLLIYDTSNLASGVPVRFSGSGSGTSYSLTISRMEAEDAATYNCQQWSSYPLTFGAGTKLELK
notes: Mouse IgG, kappa light chain; also called clone #43
B3: antibody 44 (antibody, V domains shown)
VH: QVTLKESGPGILQPSQTLSLTCSFSGFSLSTFGMGVGWIRQPSEKGLEWLAHIWWDDDKYYNPALKSRLTISKDTSKNQIFLKITNVDTAETATYYCSRIGNYGSNYWYFDVWGTGTTVTVSS
VL: QIVLTQSPAVMSASPGEKVTMTCTASSSVYYMYWYQQTPGSSPRLLIYDTSNLASGVPVRFSGSGSGTSYSLTISRMEAEDAATYYCQQWNTYPLTFGAGTKLELK
notes: Mouse IgG, kappa light chain; also called clone #44; m44
B4: antibody 5 (antibody, V domains shown)
VH: QVTLKESGPGILQPSQTLSLTCSFSGFSLSTFGMGVGWIRQPSGKGLEWLAHIWWDDEKYYNSALKSRLTISKATSKNQAFLKIANVDTADTATYYCARISNYGSNYWYFNVWGTGTTVTVSS
VL: QVVLTQSPALMSASPGEKVTMTCSAGSSVSCMYWYQQKPGSSPRVLIYDTSNLASGVPARFTGSGSGTSYSLTISRMEAEDAASYYCQQWNSYPLTFGAGTKLELK
notes: Mouse IgG, kappa light chain; also called clone #5; purified antibody 5
B5: antibody 42 (antibody, V domains shown)
VH: QVTLKESGPGILQPSQTLSLTCSLSGFSLSTFGRGVGWIRQPSGKGLEWLAHIWWDDEKYYNPALKSRLTISKDTSKNQVFLRIANVDTADTATYYCARIQNYGSNYWYFDVWGTGTTVTVSS
VL: LIVLTQSPAIMSASPGEKVTMTCGATSRISYMFWYQQKPGSSPRVLIYDTSNLASGVPVRFSGSGSGTSYSLTISRVEAEDVATYYCQQWNSYPLTFGAGTKLELK
notes: Mouse IgG, kappa light chain; also called clone #42; m42
B6: antibody 22 (antibody, V domains shown)
VH: QVTLKESGPGILQPSQTLSLTCSFSGFSLSTFGMGVGWIRQPSGKGLEWLAHIWWDDEKYYNSALKSRLTISKATSKNQVFLKIANVDTADTATYYCARISNYGSNYWYFNVWGTGTTVTVSS
VL: QVVLTQSPALMSASPGEKVTMTCSAGSSVSYMYWYQQKPGSSPRVLIYDTSNLASGVPARFTGSGSGTSYSLTISRMEAEDAATYYCQQWNSYPLTFGAGTKLELK
notes: Mouse IgG, kappa light chain; also called clone #22; m22
B7: antibody 34 (antibody, V domains shown)
VH: QVTLKESGPGILQPSQTLSLTCSFSGFSLSTFSLGVGWIRQSSGKGLEWLAHIWWDDEKYYNPALKSRLTISKDTSKNQVFLKIANVDAADTATYYCARAYYSKSYYALDYWGQGTSVTVSS
VL: DIQMTQSPSSLSASLGERVSLTCRASQEISGYLSWLQQKPDGTIKRLIYAASTLDSGVPKRFSGSRSGSDYSLAISSLESEDFADYYCLQYANFPFTFGSGTKLEIK
notes: Mouse IgG, kappa light chain; also called clone #34; m34
B8: antibody 16 (antibody, V domains shown)
VH: QVTLKESGPGILQPSQTLSLTCSFSGFSLSTFALGVGWIRQPSGRGLEWLAHIWWDDDKYYNPALKSRLTISKDTSKNHVFLKIANVDTADTATYYCARITTYYYGMDYWGQGTSVTVSS
VL: DIVLSQSPATLSVTPGDSVSLFCRASQSIGNHLHWYQQESHASPRLLIKYASQSISGIPSRFSGSGSGTDFTLSINSVETEDFGMYFCQQSYNWPLTFGAGTKLELK
notes: Mouse IgG, kappa light chain; also called clone #16; m16
B9: antibody 3 (antibody, V domains shown)
VH: QVTLKESGPGILQPSQTLSLTCSFSGFSLTTFAMGIGWVRQPSGKGLEWLAHIWWDGEKYNNPVLKSRLTISKDTSKNQVFLRIANVDTPDTATYYCARISSIYYIIDNWGQGTSVTVSS
VL: DIVLTQSPATLSVTPGHSVSLSCRASQSISNNLHWYQKKSHESPRLLIKYVSQSISGIPSRFSGSGSGTDFTLSINSVETEDFGMYFCQQSYNWPLTFGAGTKLELK
notes: Mouse IgG, kappa light chain; also called clone #3; purified antibody 3

Key:
[1] = molecular target: T1, miR2-FL-WT-T7 (mouse iRhom2 full length wild type C-terminally tagged with 3 consecutive copies of the T7 … (mouse, UniProt Q80WQ6 1-827)); test: FACS on cells of the row mouse iR2 wild type, vs human iR2 wild type = 100%
T1 construct: also called mouse iRhom2 variant expressed by MEF-DKO-miR2-FL-WT-T7 cells
T1 sequence: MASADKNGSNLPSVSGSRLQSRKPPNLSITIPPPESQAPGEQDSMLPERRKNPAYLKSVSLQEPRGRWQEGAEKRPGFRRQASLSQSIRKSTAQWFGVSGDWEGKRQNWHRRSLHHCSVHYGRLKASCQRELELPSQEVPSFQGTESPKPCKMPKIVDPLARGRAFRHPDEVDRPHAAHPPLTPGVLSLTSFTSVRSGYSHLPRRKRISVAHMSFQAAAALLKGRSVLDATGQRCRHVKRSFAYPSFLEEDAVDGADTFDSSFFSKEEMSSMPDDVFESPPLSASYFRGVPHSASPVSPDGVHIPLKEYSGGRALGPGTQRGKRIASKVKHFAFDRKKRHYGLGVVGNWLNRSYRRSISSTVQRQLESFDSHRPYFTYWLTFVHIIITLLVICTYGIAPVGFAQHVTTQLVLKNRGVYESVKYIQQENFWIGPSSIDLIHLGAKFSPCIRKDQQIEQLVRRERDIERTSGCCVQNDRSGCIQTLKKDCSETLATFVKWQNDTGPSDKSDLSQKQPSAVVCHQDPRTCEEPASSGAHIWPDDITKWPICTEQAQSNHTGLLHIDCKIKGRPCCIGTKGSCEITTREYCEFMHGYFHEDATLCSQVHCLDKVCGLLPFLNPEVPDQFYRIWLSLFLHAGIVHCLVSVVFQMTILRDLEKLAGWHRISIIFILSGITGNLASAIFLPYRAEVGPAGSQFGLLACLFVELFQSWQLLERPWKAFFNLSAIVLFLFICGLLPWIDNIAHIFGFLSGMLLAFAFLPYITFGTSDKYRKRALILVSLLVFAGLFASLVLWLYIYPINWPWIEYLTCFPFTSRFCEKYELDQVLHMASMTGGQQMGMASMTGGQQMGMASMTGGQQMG
From the text: In brief, immortalized MEF-DKO-hiR2-FL-WT-T7 cells, MEF-DKO-miR2-FL-WT-T7 cells and MEF-DKO-hiR2-FL-R441K-T7, MEF-DKO-hiR2-FL-K443R-T7, MEF-DKO-hiR2-FL-V459I-T7, MEF-DKO-hiR2-FL-G481Q-T7, MEF-DKO-hiR2-FL-L488R-T7, MEF-DKO-hiR2-FL-L493I-T7, MEF-DKO-hiR2-FL-D496T-T7, MEF-DKO-hiR2-FL-H505R-T7, MEF-DKO-hiR2-FL-Q512L-T7, MEF-DKO-hiR2-FL-R513K-T7, MEF-DKO-hiR2-FL-D528N-T7, MEF-DKO-hiR2-FL-P533-T7, MEF-DKO-hiR2-FL-M534S-T7, MEF-DKO-hiR2-FL-G540S-T7, MEF-DKO-hiR2-FL-R543Q-T7, MEF-DKO-hiR2-FL-T544P-T7, MEF-DKO-hiR2-FL-G546A-T7, MEF-DKO-hiR2-FL-A547V-T7, MEF-DKO-hiR2-FL-R582Q-T7, MEF-DKO-hiR2-FL-F588L-T7, MEF-DKO-hiR2-FL-M591I-T7, MEF-DKO-hiR2-FL-E594K-T7, MEF-DKO-hiR2-FL-E626D-T7, MEF-DKO-hiR2-FL-L657I-T7, and MEF-DKO-hiR2-FL-H835Y-T7 cells were harvested with 10 mM EDTA in PBS, washed and resuspended in FACS buffer (PBS, 3% FBS, 0.05% sodium azide), and seeded in Nunc U-bottom 96-well plates (Thermo Fisher Scientific, USA) at approximately 3×10⁵ cells per well. To pellet cells and remove supernatants, the plates were centrifuged at 1,500 rpm and 4° C. for 3 minutes. For primary staining, cells were resuspended in 100 μl per well of either FACS buffer alone (controls) or the purified antibodies 3, 5, 16, 22, 34, 42, 43, 44, 48, and 50 of the present disclosure at 3 μg/ml FACS buffer and incubated on ice for 1 hour. Afterwards, plates were centrifuged at 1,500 rpm and 4° C. for 3 minutes and washed twice with 200 μl per well of FACS buffer. For secondary staining, cells were spun down and resuspended in 100 μl per well of PE-conjugated goat anti-mouse IgG F(ab′)2 detection fragment (Dianova, Germany) diluted 1:100 in FACS buffer. Protected from light, the cell suspensions were incubated on ice for 1 hour. Plates were then centrifuged at 1,500 rpm and 4° C. for 3 minutes and washed three times with 200 μl per well of FACS buffer. Finally, cells were resuspended in 150 μl per well of FACS buffer and analyzed using a BD Accuri™ C6 Plus flow cytometer (Becton Dickinson, Germany).

[2] = molecular target: T1, miR2-FL-WT-T7 (mouse iRhom2 full length …); test: FACS on cells of the row mouse iR2 wild type

Binder | grade of loss of binding vs wild type [1] | binding result [2]
B1 | 3 grade (3 => 95% loss of binding vs wild type) | no binding (tested: 3 µg/ml)
B2 | 3 grade (3 => 95% loss of binding vs wild type) | no binding (tested: 3 µg/ml)
B3 | 3 grade (3 => 95% loss of binding vs wild type) | no binding (tested: 3 µg/ml)
B4 | 3 grade (3 => 95% loss of binding vs wild type) | no binding (tested: 3 µg/ml)
B5 | 3 grade (3 => 95% loss of binding vs wild type) | no binding (tested: 3 µg/ml)
B6 | 3 grade (3 => 95% loss of binding vs wild type) | no binding (tested: 3 µg/ml)
B7 | 3 grade (3 => 95% loss of binding vs wild type) | no binding (tested: 3 µg/ml)
B8 | 3 grade (3 => 95% loss of binding vs wild type) | no binding (tested: 3 µg/ml)
B9 | 3 grade (3 => 95% loss of binding vs wild type) | –
